Measured values taken from article PMC3210417 (Nature structural & molecular biology, 2011).

T1: Epl1 (residues 51–380, EPcA domain) of Piccolo v07 (S. cerevisiae, UniProt P43572 51-380)
T1 sequence: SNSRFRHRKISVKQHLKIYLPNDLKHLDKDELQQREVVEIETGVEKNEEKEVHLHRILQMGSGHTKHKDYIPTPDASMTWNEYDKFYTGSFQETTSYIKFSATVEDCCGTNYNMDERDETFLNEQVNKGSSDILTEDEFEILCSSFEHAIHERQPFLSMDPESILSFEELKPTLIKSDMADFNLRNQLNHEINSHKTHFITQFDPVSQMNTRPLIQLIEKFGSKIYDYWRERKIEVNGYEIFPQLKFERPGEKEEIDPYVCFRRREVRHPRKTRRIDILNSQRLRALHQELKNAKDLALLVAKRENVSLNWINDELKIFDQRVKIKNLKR


Legend:
[1] = biological target: recombinant nucleosome core particle formed from full-length Xenopus recombinant histones and mouse (Xenopus); test: negative-stain EM of single particles
[2] = biological target: T1, Epl1 (residues 51–380, EPcA domain) of …; test: AUC

Row | Molecule | percent of NuA4 particles bound to NCP [1] [%] | stoichiometry N [1] | stoichiometry N [2]
1 | NuA4 histone acetyltransferase complex (from UniProt P43572;Q08649;P38806;Q06337;P38811;Q12432;P39995;P53911;P53201;P53930;P60010;P80428;P47128) | 5 | 1 | 
2 | Yng2 (residues 2–218, without PHD domain) of Piccolo v07 (domain or fragment) DPSLVLEQTIQDVSNLPSEFRYLLEEIGSNDLKLIEEKKKYEQKESQIHKFIRQQGSIPKHPQEDGLDKEIKESLLKCQSLQREKCVLANTALFLIARHLNKLEKNIALLEEDGVLAPVEEDGDMDSAAEASRESSVVSNSSVKKRRAASSSGSVPPTLKKKKTSRTSKLQNEIDVSSREKSVTPVSPSIEKKIARTKEFKNSRNGKGQNGSPENEE |  |  | 1
3 | Esa1 (residues 2–445), 6 × His-tagged, of Piccolo v07 (enzyme) SHDGKEEPGIAKKINSVDDIIIKCQCWVQKNDEERLAEILSINTRKAPPKFYVHYVNYNKRLDEWITTDRINLDKEVLYPKLKATDEDNKKQKKKKATNTSETPQDSLQDGVDGFSRENTDVMDLDNLNVQGIKDENISHEDEIKKLRTSGSMTQNPHEVARVRNLNRIIMGKYEIEPWYFSPYPIELTDEDFIYIDDFTLQYFGSKKQYERYRKKCTLRHPPGNEIYRDDYVSFFEIDGRKQRTWCRNLCLLSKLFLDHKTLYYDVDPFLFYCMTRRDELGHHLVGYFSKEKESADGYNVACILTLPQYQRMGYGKLLIEFSYELSKKENKVGSPEKPLSDLGLLSYRAYWSDTLITLLVEHQKEITIDEISSMTSMTTTDILHTAKTLNILRYYKGQHIIFLNEDILDRYNRLKAKKRRTIDPNRLIWKPPVFTASQLRFAW |  |  | 1
